Each sequence was assayed on F1*sub RNA substrate (template-directed ligation) (assay: fraction ligated after 30 min (ligated reads / total reads); higher = more ligase activity; sequences stand for … in GAGACCGCAACTGAAAAGTTGT…AGTTCTGCACGTAGAAGCAAAAGGC). Conditions: 42 °C.
Procedure: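 Chip-synthesised pool of F1* ligase ribozyme variants (all single and double substitutions, single, double and triple deletions in the catalytic core and GAA bulge, plus designed variants) was transcribed with T7 and reacted as a pool with excess substrate F1*sub for 30 min at 42 C in 50 mM EPPS pH 8.5, 25 mM MgCl2. Ligated and unligated bands were separated by PAGE, barcoded by RT and deep sequenced; fraction ligated = ligated reads / total reads per variant, relative activity = FL / FL of wild type (0.826). Sequences are the DNA template of the ribozyme.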
In the case of AACTTGTCGTAAGACACTTTGGATGGGTTGA [3d24], the fraction ligated is reported as 0.293.
ACACTGTCGTAAGACACTTTGGATGGGTTGA [3d27] gave a fraction ligated of 0.238.
Work on ACACTTGCGTAAGACACTTTGGATGGGTTGA [3d29] yielded a fraction ligated of 0.197.
ACACTTGTCGAAGACACTTTGGATGGGTTGA [3d32] was tested, and the fraction ligated was 0.475.
ACACTTGTCGTAAACACTTTGGATGGGTTGA [3d34] gave a fraction ligated of 0.201.
ACACTTGTCGTAAGAACTTTGGATGGGTTGA [3d36] was tested, and the fraction ligated was 0.218.
Sequence ACACTTGTCGTAAGACACTTGGATGGGTTGA [3d39] has a fraction ligated of 0.157.
ACACTTGTCGTAAGACACTTTGATGGGTTGA [3d40] gave a fraction ligated of 0.0824.
Work on ACACTTGTCGTAAGACACTTTGGAGGGTTGA [3d42] yielded a fraction ligated of 0.115.
Sequence ACACTTGTCGTAAGACACTTTGGATGGGTTA [3d44] has a fraction ligated of 0.217.
With ACACTTGTCGTAAGACACTTTGGATGGGTTG [3d45] the fraction ligated was 0.739.
For ACACTTGTCGTAAGACACTTTGGATGGGTTGA [2d2], the fraction ligated was 0.725.
For ACACTTGTCGTAAGACACTTTGGATGGTTGA [3d43], the fraction ligated was 0.662.
In the case of ACACTTGTCGTAAGACACTTTGGTGGGTTGA [3d41], the fraction ligated is reported as 0.0656.
For ACACTTGTCGTAAGACATTTGGATGGGTTGA [3d38], the fraction ligated was 0.484.
ACACTTGTCGTAAGACCTTTGGATGGGTTGA [3d37] gave a fraction ligated of 0.627.
Sequence ACACTTGTCGTAAGCACTTTGGATGGGTTGA [3d35] has a fraction ligated of 0.221.
For ACACTTGTCGTAGACACTTTGGATGGGTTGA [3d33], the fraction ligated was 0.552.
ACACTTGTCTAAGACACTTTGGATGGGTTGA [3d31] was tested, and the fraction ligated was 0.441.
For ACACTTGTGTAAGACACTTTGGATGGGTTGA [3d30], the fraction ligated was 0.407.
ACACTTTCGTAAGACACTTTGGATGGGTTGA [3d28] showed a fraction ligated of 0.0846.
ACATTGTCGTAAGACACTTTGGATGGGTTGA [3d26] was tested, and the fraction ligated was 0.0699.
ACCTTGTCGTAAGACACTTTGGATGGGTTGA [3d25] gave a fraction ligated of 0.616.
In the case of ATACTGTCGTAAGACACTTTGGATGGGTTGA [3d48], the fraction ligated is reported as 0.361.
ATACTTGCGTAAGACACTTTGGATGGGTTGA [3d50] gave a fraction ligated of 0.177.
In the case of ATACTTGTCGAAGACACTTTGGATGGGTTGA [3d53], the fraction ligated is reported as 0.268.
Sequence ATACTTGTCGTAAACACTTTGGATGGGTTGA [3d55] has a fraction ligated of 0.112.
ATACTTGTCGTAAGAACTTTGGATGGGTTGA [3d57] showed a fraction ligated of 0.448.
In the case of ATACTTGTCGTAAGACACTTGGATGGGTTGA [3d60], the fraction ligated is reported as 0.473.
ATACTTGTCGTAAGACACTTTGATGGGTTGA [3d61] gave a fraction ligated of 0.291.
In the case of ATACTTGTCGTAAGACACTTTGGAGGGTTGA [3d63], the fraction ligated is reported as 0.0364.
For ATACTTGTCGTAAGACACTTTGGATGGGTTA [3d65], the fraction ligated was 0.0347.
Sequence ATACTTGTCGTAAGACACTTTGGATGGGTTG [3d66] has a fraction ligated of 0.244.
With ATACTTGTCGTAAGACACTTTGGATGGGTTGA [2d3] the fraction ligated was 0.478.
ATACTTGTCGTAAGACACTTTGGATGGTTGA [3d64] gave a fraction ligated of 0.21.
In the case of ATACTTGTCGTAAGACACTTTGGTGGGTTGA [3d62], the fraction ligated is reported as 0.0395.
For ATACTTGTCGTAAGACATTTGGATGGGTTGA [3d59], the fraction ligated was 0.446.
ATACTTGTCGTAAGACCTTTGGATGGGTTGA [3d58] gave a fraction ligated of 0.412.
Work on ATACTTGTCGTAAGCACTTTGGATGGGTTGA [3d56] yielded a fraction ligated of 0.279.
ATACTTGTCGTAGACACTTTGGATGGGTTGA [3d54] showed a fraction ligated of 0.0939.
For ATACTTGTCTAAGACACTTTGGATGGGTTGA [3d52], the fraction ligated was 0.24.
ATACTTGTGTAAGACACTTTGGATGGGTTGA [3d51] gave a fraction ligated of 0.734.
ATACTTTCGTAAGACACTTTGGATGGGTTGA [3d49] was tested, and the fraction ligated was 0.0977.
For ATATTGTCGTAAGACACTTTGGATGGGTTGA [3d47], the fraction ligated was 0.0915.
ATCACGTCGTAAGACACTTTGGATGGGTTGA [3d105] showed a fraction ligated of 0.749.
ATCACTGCGTAAGACACTTTGGATGGGTTGA [3d107] showed a fraction ligated of 0.818.
ATCACTGTCGAAGACACTTTGGATGGGTTGA [3d110] showed a fraction ligated of 0.775.
ATCACTGTCGTAAACACTTTGGATGGGTTGA [3d112] showed a fraction ligated of 0.747.
Work on ATCACTGTCGTAAGAACTTTGGATGGGTTGA [3d114] yielded a fraction ligated of 0.848.
Work on ATCACTGTCGTAAGACACTTGGATGGGTTGA [3d117] yielded a fraction ligated of 0.743.
ATCACTGTCGTAAGACACTTTGATGGGTTGA [3d118] showed a fraction ligated of 0.685.
In the case of ATCACTGTCGTAAGACACTTTGGAGGGTTGA [3d120], the fraction ligated is reported as 0.148.
ATCACTGTCGTAAGACACTTTGGATGGGTTA [3d122] gave a fraction ligated of 0.298.
ATCACTGTCGTAAGACACTTTGGATGGGTTG [3d123] showed a fraction ligated of 0.74.
Sequence ATCACTGTCGTAAGACACTTTGGATGGGTTGA [2d6] has a fraction ligated of 0.739.
In the case of ATCACTGTCGTAAGACACTTTGGATGGTTGA [3d121], the fraction ligated is reported as 0.46.
Sequence ATCACTGTCGTAAGACACTTTGGTGGGTTGA [3d119] has a fraction ligated of 0.108.
ATCACTGTCGTAAGACATTTGGATGGGTTGA [3d116] showed a fraction ligated of 0.719.
ATCACTGTCGTAAGACCTTTGGATGGGTTGA [3d115] gave a fraction ligated of 0.726.
ATCACTGTCGTAAGCACTTTGGATGGGTTGA [3d113] showed a fraction ligated of 0.749.
Sequence ATCACTGTCGTAGACACTTTGGATGGGTTGA [3d111] has a fraction ligated of 0.824.
With ATCACTGTCTAAGACACTTTGGATGGGTTGA [3d109] the fraction ligated was 0.756.
Sequence ATCACTGTGTAAGACACTTTGGATGGGTTGA [3d108] has a fraction ligated of 0.823.
Work on ATCACTTCGTAAGACACTTTGGATGGGTTGA [3d106] yielded a fraction ligated of 0.761.
In the case of ATCACTTGCGAAGACACTTTGGATGGGTTGA [3d142], the fraction ligated is reported as 0.743.
Work on ATCACTTGCGTAAACACTTTGGATGGGTTGA [3d144] yielded a fraction ligated of 0.758.
ATCACTTGCGTAAGAACTTTGGATGGGTTGA [3d146] gave a fraction ligated of 0.835.
Sequence ATCACTTGCGTAAGACACTTGGATGGGTTGA [3d149] has a fraction ligated of 0.726.
Work on ATCACTTGCGTAAGACACTTTGATGGGTTGA [3d150] yielded a fraction ligated of 0.561.
For ATCACTTGCGTAAGACACTTTGGAGGGTTGA [3d152], the fraction ligated was 0.061.
With ATCACTTGCGTAAGACACTTTGGATGGGTTA [3d154] the fraction ligated was 0.567.
ATCACTTGCGTAAGACACTTTGGATGGGTTG [3d155] was tested, and the fraction ligated was 0.805.
With ATCACTTGCGTAAGACACTTTGGATGGGTTGA [2d8] the fraction ligated was 0.836.
With ATCACTTGCGTAAGACACTTTGGATGGTTGA [3d153] the fraction ligated was 0.569.
In the case of ATCACTTGCGTAAGACACTTTGGTGGGTTGA [3d151], the fraction ligated is reported as 0.0301.
For ATCACTTGCGTAAGACATTTGGATGGGTTGA [3d148], the fraction ligated was 0.768.
ATCACTTGCGTAAGACCTTTGGATGGGTTGA [3d147] showed a fraction ligated of 0.757.
Work on ATCACTTGCGTAAGCACTTTGGATGGGTTGA [3d145] yielded a fraction ligated of 0.804.
With ATCACTTGCGTAGACACTTTGGATGGGTTGA [3d143] the fraction ligated was 0.818.
Work on ATCACTTGCTAAGACACTTTGGATGGGTTGA [3d141] yielded a fraction ligated of 0.763.
ATCACTTGGTAAGACACTTTGGATGGGTTGA [3d140] showed a fraction ligated of 0.735.
ATCACTTGTCAAGACACTTTGGATGGGTTGA [3d171] gave a fraction ligated of 0.749.
With ATCACTTGTCGAAACACTTTGGATGGGTTGA [3d186] the fraction ligated was 0.784.
ATCACTTGTCGAAGAACTTTGGATGGGTTGA [3d188] showed a fraction ligated of 0.805.
ATCACTTGTCGAAGACACTTGGATGGGTTGA [3d191] gave a fraction ligated of 0.728.
With ATCACTTGTCGAAGACACTTTGATGGGTTGA [3d192] the fraction ligated was 0.655.
Work on ATCACTTGTCGAAGACACTTTGGAGGGTTGA [3d194] yielded a fraction ligated of 0.128.
ATCACTTGTCGAAGACACTTTGGATGGGTTA [3d196] showed a fraction ligated of 0.707.
ATCACTTGTCGAAGACACTTTGGATGGGTTG [3d197] showed a fraction ligated of 0.795.
Work on ATCACTTGTCGAAGACACTTTGGATGGGTTGA [2d11] yielded a fraction ligated of 0.777.
For ATCACTTGTCGAAGACACTTTGGATGGTTGA [3d195], the fraction ligated was 0.714.
In the case of ATCACTTGTCGAAGACACTTTGGTGGGTTGA [3d193], the fraction ligated is reported as 0.0564.
In the case of ATCACTTGTCGAAGACATTTGGATGGGTTGA [3d190], the fraction ligated is reported as 0.762.
For ATCACTTGTCGAAGACCTTTGGATGGGTTGA [3d189], the fraction ligated was 0.75.
ATCACTTGTCGAAGCACTTTGGATGGGTTGA [3d187] was tested, and the fraction ligated was 0.736.
ATCACTTGTCGAGACACTTTGGATGGGTTGA [3d185] was tested, and the fraction ligated was 0.757.
ATCACTTGTCGTAAAACTTTGGATGGGTTGA [3d211] showed a fraction ligated of 0.768.
For ATCACTTGTCGTAAACACTTGGATGGGTTGA [3d214], the fraction ligated was 0.742.
For ATCACTTGTCGTAAACACTTTGATGGGTTGA [3d215], the fraction ligated was 0.521.
ATCACTTGTCGTAAACACTTTGGAGGGTTGA [3d217] gave a fraction ligated of 0.0797.
Work on ATCACTTGTCGTAAACACTTTGGATGGGTTA [3d219] yielded a fraction ligated of 0.54.
ATCACTTGTCGTAAACACTTTGGATGGGTTG [3d220] gave a fraction ligated of 0.75.
With ATCACTTGTCGTAAACACTTTGGATGGGTTGA [2d13] the fraction ligated was 0.78.
Sequence ATCACTTGTCGTAAACACTTTGGATGGTTGA [3d218] has a fraction ligated of 0.557.
Work on ATCACTTGTCGTAAACACTTTGGTGGGTTGA [3d216] yielded a fraction ligated of 0.0249.
Sequence ATCACTTGTCGTAAACATTTGGATGGGTTGA [3d213] has a fraction ligated of 0.777.
Work on ATCACTTGTCGTAAACCTTTGGATGGGTTGA [3d212] yielded a fraction ligated of 0.758.
ATCACTTGTCGTAACACTTTGGATGGGTTGA [3d199] showed a fraction ligated of 0.779.
ATCACTTGTCGTAAGAACTTGGATGGGTTGA [3d232] showed a fraction ligated of 0.751.
ATCACTTGTCGTAAGAACTTTGATGGGTTGA [3d233] showed a fraction ligated of 0.533.

— the supplement of paper PMC6755084
